Laboratory results as given in IntAct's records for PubMed 23142976.

B1: Autophagy-related protein 3 (Saccharomyces cerevisiae), P40344 (parent)
chain: MIRSTLSSWREYLTPITHKSTFLTTGQITPEEFVQAGDYLCHMFPTWKWNEESSDISYRDFLPKNKQFLIIRKVPCDKRAEQCVEVEGPDVIMKGFAEDGDEDDVLEYIGSETEHVQSTPAGGTKDSSIDDIDELIQDMEIKEEDENDDTEEFNAKGGLAKDMAQERYYDLYIAYSTSYRVPKMYIVGFNSNGSPLSPEQMFEDISADYRTKTATIEKLPFYKNSVLSVSIHPCKHANVMKILLDKVRVVRQRRRKELQEEQELDGVGDWEDLQDDIDDSLRVDQYLIVFLKFITSVTPSIQHDYTMEGW
partner: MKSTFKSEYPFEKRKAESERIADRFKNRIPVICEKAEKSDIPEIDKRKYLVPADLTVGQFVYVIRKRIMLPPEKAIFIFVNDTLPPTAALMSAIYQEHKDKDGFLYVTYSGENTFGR
B2: Ubiquitin-like modifier-activating enzyme ATG7 (Saccharomyces cerevisiae), P38862 (parent)
chain: MSSERVLSYAPAFKSFLDTSFFQELSRLKLDVLKLDSTCQPLTVNLDLHNIPKSADQVPLFLTNRSFEKHNNKRTNEVPLQGSIFNFNVLDEFKNLDKQLFLHQRALECWEDGIKDINKCVSFVIISFADLKKYRFYYWLGVPCFQRPSSTVLHVRPEPSLKGLFSKCQKWFDVNYSKWVCILDADDEIVNYDKCIIRKTKVLAIRDTSTMENVPSALTKNFLSVLQYDVPDLIDFKLLIIRQNEGSFALNATFASIDPQSSSSNPDMKVSGWERNVQGKLAPRVVDLSSLLDPLKIADQSVDLNLKLMKWRILPDLNLDIIKNTKVLLLGAGTLGCYVSRALIAWGVRKITFVDNGTVSYSNPVRQALYNFEDCGKPKAELAAASLKRIFPLMDATGVKLSIPMIGHKLVNEEAQHKDFDRLRALIKEHDIIFLLVDSRESRWLPSLLSNIENKTVINAALGFDSYLVMRHGNRDEQSSKQLGCYFCHDVVAPTDSLTDRTLDQMCTVTRPGVAMMASSLAVELMTSLLQTKYSGSETTVLGDIPHQIRGFLHNFSILKLETPAYEHCPACSPKVIEAFTDLGWEFVKKALEHPLYLEEISGLSVIKQEVERLGNDVFEWEDDESDEIA
partner: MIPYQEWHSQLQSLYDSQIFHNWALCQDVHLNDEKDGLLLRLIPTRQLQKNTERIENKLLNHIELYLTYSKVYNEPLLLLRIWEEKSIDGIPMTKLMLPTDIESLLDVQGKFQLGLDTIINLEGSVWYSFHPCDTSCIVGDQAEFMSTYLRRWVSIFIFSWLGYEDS
B3: Ubiquitin-like modifier-activating enzyme ATG7 (Saccharomyces cerevisiae), P38862 (parent)
chain: B2 chain
partner: B1 chain

Variants of: B1
Settings: with atg8_yeast ATG8, P38182

Row | Variant | effect of a mutation on the interaction
1 | MIRSTLSSWREYLTPITHKSTFLTTGQITPEEFVQAGDYLCHMFPTWKWNEESSDISYRDFLPKNKQFLIIAAVPCDKRAEQCVEVEGPDVIMKGFAEDGDEDDVLEYIGSETEHVQSTPAGGTKDSSIDDIDELIQDMEIKEEDENDDTEEFNAKGGLAKDMAQERAYDLYIAYSTSYRVPKMYIVGFNSNGSPLSPEQMFEDISADYRTKTATIEKLPFYKNSVLSVSIHPCKHANVMKILLDKVRVVRQRRRKELQEEQELDGVGDWEDLQDDIDDSLRVDQYLIVFLKFITSVTPSIQHDYTMEGW [R72A;K73A;Y168A] | disrupting interaction strength

Variants of: B2
Settings: with atg10_yeast ATG10, Q07879

Row | Variant | effect of a mutation on the interaction
2 | V285D | disrupting interaction strength
3 | C507A | disrupting interaction strength
4 | Y137A | decreasing interaction strength

Variants of: B3
Settings: with atg3_yeast ATG3, P40344

Row | Variant | effect of a mutation on the interaction
5 | C507A | disrupting interaction strength
6 | K14A;F16A;D18A | decreasing interaction strength
7 | P283D | decreasing interaction strength
8 | V285A | decreasing interaction strength
9 | F16A;F61A | decreasing interaction strength
